Publication PMC3520155

Molecular target: HA-tagged full-length pebble (Pbl) (Drosophila)
Test: co-IP

Substance	percent reduction in binding against wild-type ICD [%]
Sema-1a ICD[36G/52A] (domain or fragment)	33
Sema-1a ICD[Δ31–60] (domain or fragment)	44
